Experimental data: US8377889B2, “Adiponectin receptor fragments and methods of use” (Siemens Healthcare Diagnostics Inc., priority 2007, dated 2013)
“Also recorded” adds a separate entry of the source. Read-outs that look alike come from different tables or passages of the source. Residues, ends and D or L forms follow the SMILES beside them.

Columns and labels:
[1] = Plasma ECM32 (AdipoR1) level in normal and diabetic rats; type: in vivo; conditions: rat, 2 mg/kg, 120 min
Experimental: The effect of ECM32 (SEQ ID NO:1) on the plasma adiponectin and ECM32 levels in normal and diabetic rats was evaluated. The peptide was injected at 2 mg/kg along with a control group.

[2] = target: T1, insulin degradation enzyme (IDE) (Homo sapiens, UniProt P14735); experiment: Inhibition of IDE activity; type: biochemical; conditions: Example 9, Table 3
ADAM-17 = ADAM-17 (Homo sapiens, UniProt P78536); experiment: Inhibition of ADAM-17 (TACE) activity; type: biochemical; conditions: for ADAM 17 inhibition: Example 9, Table 3
Experimental: (§1) The cleavage enzymes for ECM32 are also potential therapeutic targets. ECM32 sequence at the cleavage site was matched to Elastase (X-VV) and ADAM17 (X-VVAA) as potential enzymes (proteases) able to cleave or bind ECM32. The peptides of SEQ ID NO:1 (ECM32) and SEQ ID NO:2 (ECM30) were tested at levels of 0 mg/L, 12.5 mg/L, 25 mg/L, and 50 mg/L for their effect on cleavage enzymes.
The effect of ECM32 (SEQ ID NO:1), ECM30 (SEQ ID NO:2), ECM25 (SEQ ID NO:5), ECM10 (SEQ ID NO:6), ECM12 (SEQ ID NO:7), and ECM9 (SEQ ID NO:8) on ADAM-17 activity was evaluated.

normal and diabetic rats = experiment: Effect on plasma glucose level in normal and diabetic rats; type: in vivo, rat; conditions: injected at 2 mg/kg
Experimental: The effect of ECM32 (SEQ ID NO:1) and ECM30 (SEQ ID NO:2) on the plasma glucose levels in normal and diabetic rats was evaluated. The peptides were injected at 2 mg/kg along with a control group. […] This could be due to ADAM-17 cleavage of ECM30 into IDE inhibitory forms in vivo.

normal rats = experiment: Plasma insulin testing in normal rats; type: in vivo, rat
Experimental: The peptides of SEQ ID NO:1 (ECM32) and SEQ ID NO:2 (ECM30) were tested by treating normal rat groups of 6 to 8 animals at 2 mg/mL in saline intravenously and compared to an untreated control group (0.9% saline solution only). All three groups were fasted on Day 0. Fasted plasma glucose and insulin were measured on Day 1 at 0, 30, 60, 90, and 120 minutes post glucose dose (5 mL/kg). Plasma levels of ECM30 and ECM32 were also measured. Plots of the data are shown in FIG. 1 and FIG. 2, for the insulin level in ng/mL and glucose level in mg/dL, respectively, as a function of time.

diabetic rats = experiment: Plasma insulin testing in diabetic rats; type: in vivo, rat; conditions: 2 mg/mL and 10 mg/mL in saline intravenously
Experimental: The peptide of SEQ ID NO:2 (ECM30) was tested by treating diabetic rat groups of 8 animals at 2 mg/mL and 10 mg/mL in saline intravenously and compared to a control group (bovine serum albumin in saline). All three groups were fasted on Day 0. Fasted plasma glucose and insulin were be measured on Day 1 at 0, 30, 60, 90, and 120 minutes post glucose dose. Plots of the data are shown in FIG. 3 and FIG. 4, for the insulin level and % of pre-dose glucose in ng/ml, respectively, as a function of time.

Elastase = Elastase inhibition; type: biochemical; conditions: Example 4; 0, 12.5, 25, 50 mg/L
Experimental: as §1

[3] = target: T1, insulin degradation enzyme (IDE); experiment: Inhibition of IDE activity; type: biochemical; conditions: Example 8; 0-50 μg/ml for ECM32, 0-100 μg/ml for ECM30
Experimental: The effect of ECM32 (SEQ ID NO:1) and ECM30 (SEQ ID NO:2) on IDE activity over time was evaluated at four different dose levels (0, 12.5, 25, and 50 μg/ml for ECM32 and 0, 25, 50, and 100 μg/ml for ECM30). The results are shown in FIG. 9 for ECM32 (SEQ ID NO:1) and FIG. 10 for ECM30 (SEQ ID NO:2). […]

Sequence of ADAM-17 (P78536 215-824, species assumed): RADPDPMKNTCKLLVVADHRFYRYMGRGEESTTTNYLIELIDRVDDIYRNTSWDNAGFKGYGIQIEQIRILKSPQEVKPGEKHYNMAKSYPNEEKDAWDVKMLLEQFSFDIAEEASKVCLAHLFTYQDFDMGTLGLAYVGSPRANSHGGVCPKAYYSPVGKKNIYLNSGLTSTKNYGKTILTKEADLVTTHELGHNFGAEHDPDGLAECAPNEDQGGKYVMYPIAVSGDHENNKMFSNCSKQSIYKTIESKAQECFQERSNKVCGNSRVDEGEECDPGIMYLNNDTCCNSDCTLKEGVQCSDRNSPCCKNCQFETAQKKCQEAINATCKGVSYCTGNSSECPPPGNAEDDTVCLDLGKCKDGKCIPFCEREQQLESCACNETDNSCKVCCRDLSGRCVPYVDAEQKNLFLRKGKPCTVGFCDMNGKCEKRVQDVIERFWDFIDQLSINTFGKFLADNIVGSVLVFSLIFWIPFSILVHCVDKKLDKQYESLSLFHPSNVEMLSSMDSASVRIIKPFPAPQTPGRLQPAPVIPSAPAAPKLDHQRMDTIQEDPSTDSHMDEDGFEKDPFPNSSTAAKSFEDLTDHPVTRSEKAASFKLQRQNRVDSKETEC

Work on `CC(C)C[C@H](NC(=O)[C@H](CC(C)C)NC(=O)[C@@H](NC(=O)[C@H](CC(=O)O)NC(=O)[C@H](CC(=O)O)NC(=O)[C@@H](NC(=O)[C@H](CS)NC(=O)CNC(=O)CNC(=O)[C@H](CCC(=O)O)NC(=O)[C@H](CC(C)C)NC(=O)CNC(=O)[C@H](Cc1ccc(O)cc1)NC(=O)[C@H](CCCNC(=N)N)NC(=O)[C@H](Cc1ccccc1)NC(=O)[C@H](CCC(=O)O)NC(=O)[C@H](CCC(N)=O)NC(=O)[C@H](CC(C)C)NC(=O)[C@H](CC(N)=O)NC(=O)[C@H](CO)NC(=O)[C@@H](NC(=O)CNC(=O)[C@H](Cc1ccc(O)cc1)NC(=O)[C@H](Cc1ccccc1)NC(=O)[C@H](Cc1c[nH]cn1)NC(=O)[C@@H](NC(=O)[C@H](Cc1ccccc1)NC(=O)[C@H](C)NC(=O)[C@H](C)NC(=O)[C@H](C)NC(=O)[C@@H](NC(=O)[C@@H](N)C(C)C)C(C)C)C(C)C)C(C)C)[C@@H](C)O)[C@@H](C)O)C(=O)O` [ECM32] (H-VVAAAFVHFYGVSNLQEFRYGLEGGCTDDTLL-OH; N-terminus and C-terminus assumed) yielded a level at 2 h ([1]; Diabetic Rats (ZDF), read-out: ECM32 (AdipoR1) in Plasma, Mean ± SD) of 95.1 ± 36.1 ng/mL and a level at 2 h ([1]; Normal Rats (SD)) of 113 ± 18.5 ng/mL.

For “HFYGVSNLQEFR [ECM12, ADIPOR1 fragment, 12 amino acids]”, the IDE inhibition [2] was “inhibit IDE activity; also recorded: positive” and the “ADAM 17 inhibition” value (ADAM-17) was “no significant effect on ADAM-17 activity; also recorded: negative”.

With “HFYGVSNLQEFRYGLEGGCTDDTLL [ECM25, ADIPOR1 C-terminal fragment, 25 amino acids]” the IDE inhibition [2] was “inhibit IDE activity”, the IDE inhibition ([2]; listed as ECM 25) was “positive” and the “ADAM 17 inhibition” value (ADAM-17) was “no significant effect on ADAM-17 activity”. For the same compound, the “ADAM 17 inhibition” value (ADAM-17; listed as ECM 25) was “negative”.

For “HVLVVAAAFVHFYGVSNLQEFRYGLEGGCT (listed as Homo Sapiens) [ECM30, ADIPOR1 fragment, 30 amino acids, uncleaved form]”, the plasma glucose levels (normal and diabetic rats) was “lowered glucose levels, but at longer time points”, the IDE inhibition [2] was “no significant effect on IDE” and the IDE inhibition ([2]; listed as ECM 30) was “negative”. The “plasma insulin compared to the control group” value (normal rats; 2 mg/mL in saline intravenously, 0-120 min post glucose dose) was “marked elevation in the plasma insulin”, the “insulin peak relative to control” value (normal rats; 30 minute time point) was “twice that observed for the control” and the “inhibitory effect on ADAM-17 (% TACE control activity)” value (ADAM-17; Example 4, 0, 12.5, 25, 50 mg/L) was “did not significantly inhibit”. For the same compound, the “ADAM 17 inhibition” value (ADAM-17) was “no significant effect on ADAM-17 activity”, the “ADAM 17 inhibition” value (ADAM-17; listed as ECM 30) was “negative” and the plasma insulin (diabetic rats) was “did not increase insulin”. The elastase inhibition (Elastase) was “Neither ECM30 nor ECM32 showed elastase inhibition” and the “IDE activity over time” value [3] was “no significant effect on IDE over time”.

With “SGCTDDTLL [ECM9, ADIPOR1 fragment, 9 amino acids]” the IDE inhibition [2] was “inhibit IDE activity”, the IDE inhibition ([2]; listed as ECM 9) was “positive” and the “ADAM 17 inhibition” value (ADAM-17) was “no significant effect on ADAM-17 activity”. For the same compound, the “ADAM 17 inhibition” value (ADAM-17; listed as ECM 9) was “negative”.

For “VVAAAFVHFY [ECM10, ADIPOR1 fragment, 10 amino acids]”, the IDE inhibition [2] was “inhibit IDE activity”, the IDE inhibition ([2]; listed as ECM 10) was “positive” and the “ADAM 17 inhibition” value (ADAM-17) was “no significant effect on ADAM-17 activity”. The “ADAM 17 inhibition” value (ADAM-17; listed as ECM 10) was “negative”.
